The test deals with RaTG13 S-protein receptor-binding domain fused to the Fc domain of human IgG1 (bat coronavirus RaTG13). The test can be described thus: SPR. Background: Surface plasmon resonance follows binding to a sensor surface in real time, without labels.

pKd: −log10 of the molar value. Bounds are passed on as bounds.

With “soluble monomeric human ACE2-NN (enzymatically inactive human ACE2 lacking its active-site histidines) (domain or fragment)”, the pKd (as a rule, the Kd on a negative log10 scale, so that one unit is a factor of ten) was under 4.46.
